Target: T1, α-catenin (cleaved from GST–α-catenin), P35221
T1 chain: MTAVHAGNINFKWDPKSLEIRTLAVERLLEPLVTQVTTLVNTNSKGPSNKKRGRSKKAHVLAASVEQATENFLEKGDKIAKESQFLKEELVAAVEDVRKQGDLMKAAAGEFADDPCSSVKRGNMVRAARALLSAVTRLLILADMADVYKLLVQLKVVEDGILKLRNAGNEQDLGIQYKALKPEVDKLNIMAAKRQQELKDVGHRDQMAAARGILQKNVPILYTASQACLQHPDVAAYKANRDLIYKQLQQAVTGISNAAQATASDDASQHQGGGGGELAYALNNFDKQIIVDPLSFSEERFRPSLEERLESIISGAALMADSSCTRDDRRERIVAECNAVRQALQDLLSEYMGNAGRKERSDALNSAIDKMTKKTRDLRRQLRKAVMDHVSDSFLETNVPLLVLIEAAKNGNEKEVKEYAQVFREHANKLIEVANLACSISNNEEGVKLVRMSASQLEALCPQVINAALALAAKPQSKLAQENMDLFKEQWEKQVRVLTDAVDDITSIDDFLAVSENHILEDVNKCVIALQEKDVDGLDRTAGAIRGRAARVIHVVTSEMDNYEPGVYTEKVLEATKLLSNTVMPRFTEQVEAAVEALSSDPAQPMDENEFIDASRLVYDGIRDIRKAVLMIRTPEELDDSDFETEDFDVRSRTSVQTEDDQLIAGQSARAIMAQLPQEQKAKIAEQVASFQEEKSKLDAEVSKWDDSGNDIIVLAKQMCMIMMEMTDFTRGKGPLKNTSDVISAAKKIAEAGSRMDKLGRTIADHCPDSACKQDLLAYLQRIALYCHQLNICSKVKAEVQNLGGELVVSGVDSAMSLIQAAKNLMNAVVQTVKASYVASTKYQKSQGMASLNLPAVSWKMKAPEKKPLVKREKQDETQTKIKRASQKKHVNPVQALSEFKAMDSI
Assay: GST pull-down (in vitro reconstitution of cadherin complex), blot quantification
Conditions: chain shown with the change;; parent: est. 1.0; read off a plot

B1: GST–β-catenin WT, P35222 S675D (protein)
chain: MATQADLMELDMAMEPDRKAAVSHWQQQSYLDSGIHSGATTTAPSLSGKGNPEEEDVDTSQVLYEWEQGFSQSFTQEQVADIDGQYAMTRAQRVRAAMFPETLDEGMQIPSTQFDAAHPTNVQRLAEPSQMLKHAVVNLINYQDDAELATRAIPELTKLLNDEDQVVVNKAAVMVHQLSKKEASRHAIMRSPQMVSAIVRTMQNTNDVETARCTAGTLHNLSHHREGLLAIFKSGGIPALVKMLGSPVDSVLFYAITTLHNLLLHQEGAKMAVRLAGGLQKMVALLNKTNVKFLAITTDCLQILAYGNQESKLIILASGGPQALVNIMRTYTYEKLLWTTSRVLKVLSVCSSNKPAIVEAGGMQALGLHLTDPSQRLVQNCLWTLRNLSDAATKQEGMEGLLGTLVQLLGSDDINVVTCAAGILSNLTCNNYKNKMMVCQVGGIEALVRTVLRAGDREDITEPAICALRHLTSRHQEAEMAQNAVRLHYGLPVVVKLLHPPSHWPLIKATVGLIRNLALCPANHAPLREQGAIPRLVQLLVRAHQDTQRRTSMGGTQQQFVEGVRMEEIVEGCTGALHILARDVHNRIVIRGLNTIPLFVQLLYSPIENIQRVAAGVLCELAQDKEAAEAIEAEGATAPLTELLHSRNEGVATYAAAVLFRMSEDKPQDYKKRLDVELTSSLFRTEPMAWNETADLGLDIGAQGEPLGYRQDDPSYRSFHSGGYGQDALGMDPMMEHEMGGHHPGADYPVDGLPDLGHAQDLMDGLPPGDSNQLAWFDTDL
  ratio to parent: 1.1 fold change

Source: publication PMC8091128
